Consider three molecules from patent US10736970B2, “Polypeptide complex of titin-telethonin beta-pleated sheet structure as polypeptide drug carrier, method of using the polypeptide complex, and fusion protein complex thereof” (TIANJIN INSTITUTE OF INDUSTRIAL BIOTECHNOLOGY, CHINESE …, priority 2015, dated 2020).

The test system of data set [1] is SD rats. Briefly: Oral glucose tolerance test (OGTT) in rats, blood glucose. The format is in vivo, rat. The conditions noted are these: single i.p. 25 nmol/kg. As for the experimental part:
(§1) The rats in the first three groups were given 25 nmol/kg by intraperitoneal injection, the rats in the PBS group were given the same volume of PBS, and the blood glucose was measured by a blood glucose meter. After 30 min, 2 g glucose/kg body weight was given by oral gavage, which was assumed to occur at 0 min, and then the blood glucose level was measured respectively at 10, 30, 60, 90, and 120 min. The area under curve (AUC) was calculated using Graphpad Prism 6.0 software. During the process, blood was taken from the tail vein respectively at 0, 10, and 30 min, added to a centrifuge tube containing EDTA-Na2, and centrifuged at 4000 rpm for 10 min. The supernatant was collected, and the insulin content was measured by using the Rat/Mouse Insulin Elisa kit (Millipore).
SD rats of about 250 g were randomized into 4 groups (n=5), including a 1 nmol/kg group, a 5 nmol/kg group, a 25 nmol/kg group, and a PBS group.
The animals were allowed to free access to food for 12 h, and then fasted for 12 h. Then, OGTT was carried out. […]
The blood glucose level was measured by a blood glucose meter, and this was assumed to occur at −30 min. […] Then, the blood glucose was measured respectively at 10, 30, 60, 90, and 120 min. The area under curve (AUC) was calculated using Graphpad Prism 6.0 software.

Data set [2] has as its system SD rats. Nature of the data set: Insulin content in rat plasma during OGTT. The format is in vivo. The conditions noted are these: single i.p. 25 nmol/kg. As for the experimental part:
as §1
In the OGTT test of each group, blood was taken from the tail vein of rats at a time ranging from 10 to 30 min, and added dropwise to an Ep tube containing EDTA-Na2. The plasma was removed, and the insulin content was determined by using the Insulin Elisa kit (Millipore).
(§2) During the process, blood was taken from the tail vein at a time ranging from 10 to 30 min, added to a centrifuge tube containing EDTA-Na2, and centrifuged at 4000 rpm for 10 min. The supernatant was collected, and the insulin content was measured by using the Rat/Mouse Insulin Elisa kit (Millipore).

For data set [3] the following is noted: literature / background value; cited from earlier work.
For data set [4] the following is noted: rat, in vivo. As for the experimental part: Blood was sampled from the tail respectively at 0, 0.5, 1, 1.5, 2, 4, 6, and 10 h, and dripped into an Ep tube pretreated with EDTA-Na2. A DPP-4 inhibitor was immediately added (in 30 s) after the blood was sampled.
Then, blood was taken respectively at 1, 2, 4, 8, and 24 h, and added dropwise to an Ep tube pretreated with EDTA-Na2.
1 nmol GLZ/TeN was administered to the SD rats (about 250 g) by intravenous (i.v) injection at the tail and by subcutaneous injection (s.c), and this was assumed to occur at 0 h. Blood was sampled from the tail vein of the rats respectively at 0.05, 0.5, 2, 4, 8, 11, 24, and 48 h, and dripped into an Ep tube pretreated with EDTA-Na2. The protease inhibitor protinin was immediately added (in 30 s) after the blood was sampled.
2.8 nmol GLRecom was administered to the SD rats (about 250 g) by intravenous (i.v) injection at the tail, and this was assumed to occur at 0 h. Blood was sampled from the tail vein of the rats respectively at 0.05, 0.5, 2, 5, 10, 24, and 48 h, and dripped into a centrifugation tube pretreated with EDTA-Na2. The protease inhibitor protinin was immediately added (in 30 s) after the blood was sampled.

Data set [5] deals with C57BL/6 mice. Briefly: OGTT in C57BL/6 mice, blood glucose. The format is in vivo, mouse. The conditions noted are these: i.p. 10 nmol/kg. As for the experimental part: C57BL/6 mice of about 25 g were randomized into 3 groups (n=5), including a PBS group, a Z1Z2/GLTe-G group, and a GLRecom group. The animals in the Z1Z2/GLTe-G group and the GLRecom group were given the Z1Z2/GLTe-G and GLRecom respectively by intraperitoneal injection at a dosage of 10 nmol/kg body weight, and the animals in the PBS group were given the same volume of PBS. The blood glucose level was measured by a blood glucose meter, and this was assumed to occur at −30 min. After 30 min, 2 g glucose/kg body weight was given by oral gavage, and this was assumed to occur at 0 min. Then, the blood glucose was measured respectively at 10, 30, 60, 90, and 120 min. The AUC was calculated by using the Graphpad Prism 6.0 software.

The subject of data set [6] is C57BL/6 mice. Briefly: Insulin content during OGTT in C57BL/6 mice. The format is in vivo, mouse. Conditions: i.p. 10 nmol/kg. As for the experimental part:
as §2

Consider `CC[C@H](C)[C@H](NC(=O)[C@H](Cc1ccccc1)NC(=O)[C@H](CCC(=O)O)NC(=O)[C@H](CCCCN)NC(=O)[C@H](C)NC(=O)[C@H](C)NC(=O)[C@H](CCC(N)=O)NC(=O)CNC(=O)[C@H](CCC(=O)O)NC(=O)[C@H](CC(C)C)NC(=O)[C@H](Cc1ccc(O)cc1)NC(=O)[C@H](CO)NC(=O)[C@H](CO)NC(=O)[C@@H](NC(=O)[C@H](CC(=O)O)NC(=O)[C@H](CO)NC(=O)[C@@H](NC(=O)[C@H](Cc1ccccc1)NC(=O)[C@@H](NC(=O)CNC(=O)[C@H](CCC(=O)O)NC(=O)[C@H](C)NC(=O)[C@@H](N)Cc1c[nH]cn1)[C@@H](C)O)[C@@H](C)O)C(C)C)C(=O)N[C@@H](C)C(=O)N[C@@H](Cc1c[nH]c2ccccc12)C(=O)N[C@@H](CC(C)C)C(=O)N[C@H](C(=O)N[C@@H](CCCCN)C(=O)NCC(=O)N[C@@H](CCCNC(=N)N)C(=O)NCC(=O)O)C(C)C` [GLP-1, Glucagon-like peptide 1, reference compound], for which the “period of time of effective blood glucose control in OGTT” value with SD rats [1] came out at 30 min. Also, the “effect on blood glucose level in OGTT” value with SD rats [1] (2 g glucose/kg oral after 30 min) is on record as “significantly reduce the blood glucose level”. Also, in the data set on SD rats [2], the “blood insulin content during OGTT” value is “significantly increase the blood insulin content”.

On to Peptide Tyrosin-tyrosin [PYY], for which the “in-vivo half-life period of native peptide” value in data set [3] is given as 8 min.

B1: GLRecom: Single fusion protein: GLP-1(8G)-Z1Z2, Telethonin beta-pleated sheet region and second Z1Z2 connected via linkers (SEQ ID NO: 20), 60.0 kDa (protein)
chain: MKHHHHHHPMSDYDIPTTENLYFQHGEGTFTSDVSSYLEGQAAKEFIAWLVKGRGGGGGSGGGGSGGGGSAMATQAPTFTQPLQSVVVLEGSTATFEAHISGFPVPEVSWFRDGQVISTSTLPGVQISFSDGRAKLTIPAVTKANSGRYSLKATNGSGQATSTAELLVKAETAPPNFVQRLQSMTVRQGSQVRLQVRVTGIPTPVVKFYRDGAEIQSSLDFQISQEGDLYSLLIAEAYPEDSGTYSVNATNSVGRATSTAELLVQGSGSGSAPGTPGGGGSGGGGSGGGGSMATSELSSEVSEENSERREAFWAEWKDLTLSTRPEEGSSLHEEDTQRHETYHQQGQSQVLVQRSPWLMMRMGILGRGLQEYQLPYQRVLPGASGPAGSPTGSGPGSAGSGPGSAGMATQAPTFTQPLQSVVVLEGSTATFEAHISGFPVPEVSWFRDGQVISTSTLPGVQISFSDGRAKLTIPAVTKANSGRYSLKATNGSGQATSTAELLVKAETAPPNFVQRLQSMTVRQGSQVRLQVRVTGIPTPVVKFYRDGAEIQSSLDFQISQEGDLYSLLIAEAYPEDSGTYSVNATNSVGRATSTAELLVQG
As to B1, the “half-life period after intravenous injection” value in data set [4] came to 13.4 ± 0.8 h. Besides, the “half-life period relative to Z1Z2/GLTe-G complex (4 h)” value in data set [4] (iv) is recorded as “more than 3 times”. Moreover, in the data set on C57BL/6 mice [5], the “AUC of blood glucose in OGTT” value is recorded as “significantly reduced”. Further, the “blood glucose reducing effect in OGTT” value in the data set with C57BL/6 mice [5] (2 g/kg glucose) is “significant blood glucose reducing effect”. Further, in the data set on C57BL/6 mice [5] (120 min), the “blood glucose level at 120 min in OGTT” value was “still significantly reduced”. In addition, the “level of insulin secretion” value with C57BL/6 mice [6] is “significantly enhance the level of insulin secretion”.
